Test results as given in US20040175796A1 (SOLVAY PHARMACEUTICALS B V, published 2004).
No end group written: not given here.

How the values were obtained:
[1] = target: IGS4A (IGS4APROT), human G-protein coupled receptor IGS4, polymorphic form A (human, UniProt Q9GZQ4 4-415); assay: cell-based or functional assay
[2] = target: T1, IGS4B (IGS4BPROT), human G-protein coupled receptor IGS4, polymorphic form B (human, UniProt Q9GZQ4 4-415); assay: cell-based or functional assay
T1 chain: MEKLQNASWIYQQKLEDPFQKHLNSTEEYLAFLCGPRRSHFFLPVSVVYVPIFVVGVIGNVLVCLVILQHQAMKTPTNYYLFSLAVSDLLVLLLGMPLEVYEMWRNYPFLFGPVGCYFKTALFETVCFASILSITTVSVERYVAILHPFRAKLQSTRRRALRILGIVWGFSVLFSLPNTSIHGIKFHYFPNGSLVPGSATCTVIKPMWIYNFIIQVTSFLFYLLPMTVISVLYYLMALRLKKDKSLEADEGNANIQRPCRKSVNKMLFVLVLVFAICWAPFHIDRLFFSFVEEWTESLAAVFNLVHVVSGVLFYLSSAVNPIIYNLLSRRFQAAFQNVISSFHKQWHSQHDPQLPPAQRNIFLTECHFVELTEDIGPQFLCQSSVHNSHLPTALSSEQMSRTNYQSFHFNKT

EC50, calcium mobilisation (FLIPR) [1]: 53 nM
log EC50, calcium mobilisation (FLIPR) [1]: -7.27 log M
EC50, calcium mobilisation (FLIPR) [2]: 0.05 nM
LogEC50, calcium mobilisation (FLIPR) [2]: -10.6 log M
Binder: YKVNEYQGPVAPSGGFFLFRPRN-NH2 (peptide, UniProt P12760 144-166, looked up) [rat Neuromedin U-23]
